From patent US20190310251A1 come the findings set out here.

For assay [1], the target named is membrane-bound non-cleavable TNFα (human) (UniProt P01375). The experiment in a line: cell-based or functional assay.
The target of assay [2] is CD20 (UniProt P11836). The experiment in a line: cell-based or functional assay.
Chain of UniProt P11836 (P11836 whole entry): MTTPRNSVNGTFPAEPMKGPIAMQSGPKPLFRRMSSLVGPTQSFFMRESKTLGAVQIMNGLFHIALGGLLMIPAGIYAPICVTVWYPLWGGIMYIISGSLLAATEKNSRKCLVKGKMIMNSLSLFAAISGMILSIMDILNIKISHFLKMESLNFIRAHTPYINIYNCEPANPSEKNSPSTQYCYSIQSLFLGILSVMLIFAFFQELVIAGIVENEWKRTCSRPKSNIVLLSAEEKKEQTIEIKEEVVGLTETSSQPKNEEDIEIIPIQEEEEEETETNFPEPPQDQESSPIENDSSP

Chain of UniProt P01375 (P01375 whole entry A76L/V77L): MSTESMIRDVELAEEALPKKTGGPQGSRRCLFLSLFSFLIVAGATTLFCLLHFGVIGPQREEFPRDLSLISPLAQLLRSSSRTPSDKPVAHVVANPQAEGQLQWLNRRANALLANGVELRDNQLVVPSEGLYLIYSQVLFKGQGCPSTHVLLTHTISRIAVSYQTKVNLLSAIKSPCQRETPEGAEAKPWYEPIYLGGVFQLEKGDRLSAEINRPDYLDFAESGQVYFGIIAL

For the substance adalimumab (antibody), in assay [1], the ADCC Reporter Gene Assay, Serum Sample/Control; Hum. Serum + adalimumab is 2.39; the ADCC Reporter Gene Assay, Serum Sample/Control; No Hum. Serum + adalimumab was found to be 2.65; the ADCC Reporter Gene Assay, Target Positive Cells (RLU); Hum. Serum + adalimumab came to 27000 RLU; the ADCC Reporter Gene Assay, Target Positive Cells (RLU); No Hum. Serum + adalimumab was found to be 30000 RLU. Further, in assay [1], the ADCC Reporter Gene Assay, Target+/Target-; Hum. Serum + adalimumab amounted to 12.3 and the ADCC Reporter Gene Assay, Target+/Target-; No Hum. Serum + adalimumab is 17.6.
On to etanercept (Fc fusion), for which, in assay [1], the ADCC Reporter Gene Assay, Serum Sample/Control; Hum. Serum + Etanercept came to 2.77; the ADCC Reporter Gene Assay, Serum Sample/Control; No Hum. Serum + Etanercept is 2.66; the ADCC Reporter Gene Assay, Target Positive Cells (RLU); Hum. Serum + Etanercept turned out to be 23700 RLU; the ADCC Reporter Gene Assay, Target Positive Cells (RLU); No Hum. Serum + Etanercept amounted to 22800 RLU. For the same substance, in assay [1], the ADCC Reporter Gene Assay, Target+/Target-; Hum. Serum + Etanercept was determined as 13.1 and the ADCC Reporter Gene Assay, Target+/Target-; No Hum. Serum + Etanercept came to 14.1.
In assay [2], rituximab (antibody) registered an EC50 of the ADCC reporter gene assay (NFAT effector cells & wild type Raji cells, no human serum) of 1.2 µg/mL and an EC50 of the ADCC reporter gene assay (iLite effector cells & CD20++ target cells, no human serum) of 0.002 µg/mL.
